Results: PMC3681689

Tests used:
[1] = molecular target: N-terminally His-tagged S. cerevisiae Grx5 (recombinant) (S. cerevisiae) (UniProt Q02784); assay: MST
[2] = molecular target: monothiol glutaredoxin 5 (Grx5) (S. cerevisiae) (UniProt Q02784); assay: co-IP

Row | Ka [1] | amount bound to anti-Grx5 immunobeads relative to Ssc1 [2] | Substance
1 | 440000 M⁻¹ |  | recombinant His-tagged S. cerevisiae Ssq1 (natural protein)
2 |  | > 4 fold | Ssq1-glutathione S-transferase (GST) fusion protein (natural protein)
